According to the RNAGym collection of RNA variant scans (doi:10.1073/pnas.2313332121):
Fewer inactive variants are shown than the library holds.

B1: TPR 5TU (parent)
chain: GGAUCUUCUCGAUCUAACAAAAAAGACAAAUCUGCCACAAAGCUUGAGAGCAUCUUCGGAUGCAGAGGCGGCAGCCUUCGGUGGCGCGAUAGCGCCAACGUUCUCAACUAUGACACGCAAAACGCGUGCUCCGUUGAAUGGAGUUUAUCAUG

Variants of: B1
Assay: polymerase ribozyme fitness, log enrichment relative to wild type (log ratio); higher = more active; in vitro selection for triplet polymerase activity
Procedure, shortened: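 Streptavidin-bead capture of gel-excised extended constructs, followed by RT-PCR, closed a single triplicate in vitro selection round. That round began by annealing PCR-built, transcribed mutant libraries of each subunit of a heterodimeric triplet polymerase ribozyme with a biotinylated primer, the partner subunit and triplets, then incubating them frozen at −7 °C. After Illumina sequencing of inputs and outputs, genotypes needed ≥10 input reads and ≥1 read per output. Fitness is the base-2 logarithm of genotype enrichment over wild-type enrichment, using inverse-variance-weighted replicate averages.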

Point of comparison: U53A C76U A142G, “polymerase ribozyme fitness (log ratio)” value -2.87. Against it:
- C54U C85A A119U U130G — lower, -3.83
- A20C C149G — within 0.2 log units, -2.96
- U7A A16U G58C G71C C93U A115C U134C — lower, ≤ -4.2
- A3U C32A U45G G50C U53A A60G G94A A98G G141U — lower, ≤ -4.2
- A23C G58A C96U A106G — lower, ≤ -4.2
- A73G A120G — higher, 0.0734
- C87U — higher, -0.596
- U135A C149G — lower, -4.09
- A26U G50C C105A U109G C129U — lower, ≤ -4.2
- U53A U61G — higher, -0.814
- A12U A41C U55G A66G G88U G94U U134A G136C U151A — lower, ≤ -4.2
- A52C U61A G88U C96U G136U — lower, ≤ -4.2
- C54U G81A C93U C105A — higher, -2.59
- A3U U4C G88U G92U A97G — lower, ≤ -4.2
- G59U C129G — higher, -2.56
- U13A C54A G84U G88U — lower, ≤ -4.2
- U4C C87A A89U C129G — lower, ≤ -4.2
- U7G C27U A37G C43A C57A G94A — lower, ≤ -4.2
- G86C C105G — lower, -3.67
- A60C C99A A113G U127G — lower, ≤ -4.2
- C43A G92C — lower, ≤ -4.2
- U56A C76U C87U C129G A150C — lower, ≤ -4.2
- A24U C54A — higher, -0.922
- G58C G126U — higher, -0.916
- A3U A20C U31G C36A — lower, ≤ -4.2
- G11C C54U G62A A121U — higher, -2.2
- C54U U55A C93U — higher, -0.48
- A39C A107C G141C — lower, ≤ -4.2
- U45G G94U G100C A150C — lower, ≤ -4.2
- C95A C96G — higher, -2.25
- C14U U15C A16U A19G A30U A39C G48U G50A G70U A113U G141U — lower, ≤ -4.2
- G50U C132U — higher, -0.763
- C27U A60G C93A C125G G136A — within 0.2 log units, -2.85
- A20C A21U A30G A40G G94U A121G A137U — lower, ≤ -4.2
- C8U A73G G83A — lower, ≤ -4.2
- G48A G70A U78G G84U G143U — lower, ≤ -4.2
- A37U A41U A89G A115C A150U — lower, ≤ -4.2
- G42A U82G A91G G133A U134C G140C — lower, ≤ -4.2
- A26U A40U A120U — higher, -2.33
- C36G A39U A40U A60G U104A G136U G141A — lower, ≤ -4.2
- C93U G124A — higher, -1.3
- A24U A40G C57A C96A C99U U134A — lower, ≤ -4.2
- C5G A21U G59A — higher, -0.0281
- A12U G34U G50A A52G G67C C85U C96U G141A U148G — lower, ≤ -4.2
- G48C C75U G81A G84U A97U G141U A150U — lower, ≤ -4.2
- C57G G59A G81C U104G A120U — higher, -1.84
- C54U U55G U56A C69U A73C A115U — lower, ≤ -4.2
- C54G C69A A73G G86U C105A C118A C125A U148A — lower, ≤ -4.2
- U6C C14A A49U G50U A52G C93G C99G — lower, ≤ -4.2
- U6C C18G A23G C27U A30G C54U C63A G84A C103U — lower, ≤ -4.2
- G94C C99U — higher, -0.0105
- C14U G92A C116G — lower, -3.86
- U13G U44A G68C G88A C95A U144A — lower, ≤ -4.2
- U31G C54G A60G C85A C99A — lower, ≤ -4.2
- A21U G83A — higher, -1.45
- A21U U55A U56A G71U — higher, -1.72
- G11U A26G C54U A142C — lower, ≤ -4.2
- A24U C93U — higher, -1.27
- A39G C54U G74A G88A U90A A137G — lower, ≤ -4.2
- A12C U15C C35U G58A U90C G126U — lower, ≤ -4.2
- C18U C51A U53A C57U G59C C95A — lower, -4.09
- C27U U56A — higher, -1.67
- A19G U45G U90G G124A — lower, ≤ -4.2
- A52G U77G G88C — lower, ≤ -4.2
- C14A A19U U33G C69A C75G C96A A97G A106C G140C — lower, ≤ -4.2
- C10U A20U U44A C79U C87A — lower, ≤ -4.2
- A17U U31A C57U C76U C96G C103G U146C — lower, ≤ -4.2
- G59U C95A C96G A119U C123U C149U — lower, -3.57
- A17G C27U A41U — higher, -1.51
- C8U C32A G58C C93G G94U C95U G117U A138U — lower, ≤ -4.2
- C75U A89G — higher, -0.933
- G48A U61A — within 0.2 log units, -2.86
- G50U C85G — lower, -3.51
- C54U U55A C87A — lower, ≤ -4.2
- U13G A20C C27U U61A C99A — lower, ≤ -4.2
- C10U U15C A39U G48C C76A C85G G88A U90G G140U — lower, ≤ -4.2
- A47C — higher, -0.224
- G11U C32A C54U C57U G92C U148G U151G — lower, ≤ -4.2
- A28U C99G — lower, -3.72
- G11A A26C U33G C129A — lower, ≤ -4.2
- A21G C54U C96G C129A — lower, -3.17
- A28U C93G — lower, ≤ -4.2
